According to patent US20200131257A1 (YALE UNIVERSITY, published 2020):
Where “and” joins values, the source holds several entries; their conditions need not be identical. Identical values can stand only once. Like-named read-outs stand apart in the source and are kept apart here. No end group written: not given here.

Experiments:
[1] = molecular target: extracellular domain of human β-Klotho (sKLB) (human) (UniProt Q86Z14); assay: MST competition; GST-FGF21CT variant titrated into a constant sKLB/fl-FGF21 mixture
[2] = molecular target: T1, extracellular domain of human β-Klotho (sKLB) (human, UniProt Q86Z14 53-983); assay: MST; 35 nM fluorescently labeled FGF21, sKLB titrated 0.03-1000 nM
T1 construct: Made in HEK293-EBNA cells; also called WT sKLB; not shown: remnant of the TEV protease cleavage site / four-Gly linker left after the Fc tag was cut off
T1 sequence: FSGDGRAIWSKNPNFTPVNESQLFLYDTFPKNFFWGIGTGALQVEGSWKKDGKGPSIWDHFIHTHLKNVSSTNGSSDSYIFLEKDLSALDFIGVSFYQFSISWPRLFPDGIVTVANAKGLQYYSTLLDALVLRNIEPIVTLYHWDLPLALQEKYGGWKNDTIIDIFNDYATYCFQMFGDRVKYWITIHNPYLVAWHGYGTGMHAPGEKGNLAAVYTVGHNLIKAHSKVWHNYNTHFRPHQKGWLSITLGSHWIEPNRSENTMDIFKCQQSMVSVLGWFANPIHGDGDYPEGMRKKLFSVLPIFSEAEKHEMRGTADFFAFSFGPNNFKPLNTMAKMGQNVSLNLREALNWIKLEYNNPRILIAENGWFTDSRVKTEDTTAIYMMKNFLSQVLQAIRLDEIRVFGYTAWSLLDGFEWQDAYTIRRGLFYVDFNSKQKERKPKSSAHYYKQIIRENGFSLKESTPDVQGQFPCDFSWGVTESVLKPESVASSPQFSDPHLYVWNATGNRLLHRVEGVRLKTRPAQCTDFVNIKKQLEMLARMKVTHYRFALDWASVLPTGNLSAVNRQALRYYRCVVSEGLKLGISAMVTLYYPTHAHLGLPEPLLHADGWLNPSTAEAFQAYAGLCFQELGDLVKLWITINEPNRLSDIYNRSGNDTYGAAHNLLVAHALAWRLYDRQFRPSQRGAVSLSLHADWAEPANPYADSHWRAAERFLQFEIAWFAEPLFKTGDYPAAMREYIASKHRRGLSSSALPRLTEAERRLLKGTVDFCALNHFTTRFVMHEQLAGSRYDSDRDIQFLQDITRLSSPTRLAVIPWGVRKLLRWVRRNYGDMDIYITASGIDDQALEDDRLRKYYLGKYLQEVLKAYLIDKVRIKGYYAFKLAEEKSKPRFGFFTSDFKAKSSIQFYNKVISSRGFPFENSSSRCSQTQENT
Protocol: (§1) All MST measurements were performed using the Monolith NT.115Pico instrument (NanoTemper Technologies) with Monolith NT.115 MST Premium Coated Capillaries. Purified FGF21 was fluorescently labeled using the Monolith Protein Labeling Kit RED-NHS (NanoTemper Technologies) according to the instruction provided by the manufacturer. […] The thermophoretic movements of fl-FGF21 in each samples were monitored (LED 20%, IR laser 20%,) and the normalized fluorescence intensities (FNorm), defined as Fₕₒₜ/Fcold (where Fcold and Fₕₒₜ refer to the fluorescence intensities averaged over […] before IR laser is on and 29 s after IR laser is on, respectively), for each samples were plotted against the concentrations of sKLB. For the competition assays, the thermophoresis of fl-FGF21 was measured for samples where the concentration of fl-FGF21 and sKLB mixture was kept constant with the concentrations of GST-FGF21CT varying from 2.1 nM to 35000 nM. All the data were analyzed with the MO Affinity Analysis software (NanoTemper Technologies) provided by the manufacturer.
The affinity of FGF21 for sKLB was measured using MicroScale Thermophoresis or MST (Seidel et al., 2013, methods 59:301-315), where the thermophoretic movement of fluorescently-labeled FGF21 (fl-FGF21) in solution is monitored upon sKLB binding.

[3] = molecular target: T2, β-Klotho lacking D2 (human, UniProt Q86Z14 53-507); assay: SPR and/or MST
T2 sequence: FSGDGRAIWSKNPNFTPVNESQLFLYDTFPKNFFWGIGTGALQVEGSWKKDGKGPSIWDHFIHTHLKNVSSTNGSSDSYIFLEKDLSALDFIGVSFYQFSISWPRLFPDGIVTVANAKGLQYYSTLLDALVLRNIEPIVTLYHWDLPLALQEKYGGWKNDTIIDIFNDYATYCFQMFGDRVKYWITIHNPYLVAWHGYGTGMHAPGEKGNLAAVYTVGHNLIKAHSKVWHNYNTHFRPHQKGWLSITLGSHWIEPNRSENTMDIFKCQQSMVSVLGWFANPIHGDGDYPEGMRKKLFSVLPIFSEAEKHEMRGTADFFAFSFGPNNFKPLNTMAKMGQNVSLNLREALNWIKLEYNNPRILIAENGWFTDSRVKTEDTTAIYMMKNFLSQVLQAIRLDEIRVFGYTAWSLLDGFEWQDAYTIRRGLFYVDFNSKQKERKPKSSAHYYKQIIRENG

[4] = molecular target: T1, extracellular domain of human β-Klotho …; assay: MST
Protocol: The thermophoretic movements of fl-FGF21 in each samples were monitored (LED 20%, IR laser 20%,) and the normalized fluorescence intensities (FNorm), defined as Fₕₒₜ/Fcold (where Fcold and Fₕₒₜ refer to the fluorescence intensities averaged over […] before IR laser is on and 29 s after IR laser is on, respectively), for each samples were plotted against the concentrations of sKLB. For the competition assays, the thermophoresis of fl-FGF21 was measured for samples where the concentration of fl-FGF21 and sKLB mixture was kept constant with the concentrations of GST-FGF21CT varying from 2.1 nM to 35000 nM. All the data were analyzed with the MO Affinity Analysis software (NanoTemper Technologies) provided by the manufacturer.
As endocrine FGFs play important roles in the control of metabolic processes, a variety of approaches have been utilized to develop novel therapeutics that retain (and exceed in potency) the beneficial stimulatory responses of FGF19 and or FGF21 while minimizing the side effects caused by these two hormones. […] In certain non-limiting embodiments, potency of FGF21 can be enhanced by introducing mutations into its C-terminal tail that strengthen interactions with β-Klotho. An L194F mutation was introduced to increase hydrophobic interactions with neighboring amino acids in site 1 of β-Klotho. […]

[5] = molecular target: T3, full-length human β-Klotho (KLB), C-terminal HA-tagged, on L6 cells (human, UniProt Q86Z14 53-1044); assay: cell-based or functional assay
T3 sequence: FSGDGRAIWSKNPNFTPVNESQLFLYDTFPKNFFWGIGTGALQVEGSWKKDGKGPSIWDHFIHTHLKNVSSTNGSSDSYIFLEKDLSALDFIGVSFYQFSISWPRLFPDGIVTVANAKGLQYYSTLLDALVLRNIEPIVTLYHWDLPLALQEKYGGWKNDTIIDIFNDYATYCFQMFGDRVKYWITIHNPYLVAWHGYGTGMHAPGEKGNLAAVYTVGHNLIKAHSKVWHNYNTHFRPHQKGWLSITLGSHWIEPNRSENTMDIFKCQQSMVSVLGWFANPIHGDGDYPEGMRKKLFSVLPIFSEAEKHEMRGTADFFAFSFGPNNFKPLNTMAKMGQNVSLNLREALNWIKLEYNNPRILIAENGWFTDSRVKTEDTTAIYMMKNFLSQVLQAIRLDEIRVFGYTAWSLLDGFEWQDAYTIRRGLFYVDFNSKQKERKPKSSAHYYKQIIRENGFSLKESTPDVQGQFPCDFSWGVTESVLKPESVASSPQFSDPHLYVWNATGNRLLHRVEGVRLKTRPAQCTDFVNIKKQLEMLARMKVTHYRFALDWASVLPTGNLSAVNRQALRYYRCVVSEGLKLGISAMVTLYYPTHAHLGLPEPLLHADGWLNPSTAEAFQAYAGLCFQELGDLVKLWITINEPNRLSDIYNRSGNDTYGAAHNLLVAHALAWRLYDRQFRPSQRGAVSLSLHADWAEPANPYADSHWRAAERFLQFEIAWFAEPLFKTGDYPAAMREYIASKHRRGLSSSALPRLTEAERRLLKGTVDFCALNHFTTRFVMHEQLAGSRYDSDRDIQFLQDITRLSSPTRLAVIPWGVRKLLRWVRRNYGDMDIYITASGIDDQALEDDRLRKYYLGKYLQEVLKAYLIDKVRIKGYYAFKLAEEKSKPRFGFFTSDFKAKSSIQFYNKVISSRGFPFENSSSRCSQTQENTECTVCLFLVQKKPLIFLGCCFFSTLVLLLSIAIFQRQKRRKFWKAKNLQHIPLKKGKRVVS

[6] = molecular target: T1, extracellular domain of human β-Klotho …; assay: MST competition: GST-FGF21CT titrated into a constant mixture of sKLB and fluorescently labelled FGF21 (competitor: fl-FGF21)
Protocol: as §1
(§2) To measure binding of the C-terminal fragment of FGF21 (FGF21CT) to sKLB, an MST-based competition assay was used, in which GST-fused FGF21CT (GST-FGF21CT) was titrated into a constant sKLB/fl-FGF21 mixture (FIG. 6C).

[7] = molecular target: T1, extracellular domain of human β-Klotho …; assay: as above; remark: listed apart in the source
Protocol: as §1, §2

[8] = molecular target: T1, extracellular domain of human β-Klotho …; assay: SPR; GST-FGF21CT immobilized on a sensor chip using anti-GST, sKLB in solution
[9] = molecular target: T1, extracellular domain of human β-Klotho …; assay: MST competition; GST-FGF21CT titrated into a constant sKLB/fl-FGF21 mixture
Protocol: as §1, §2

[10] = molecular target: T1, extracellular domain of human β-Klotho …; assay: quantitative binding studies, method not given
[11] = molecular target: T1, extracellular domain of human β-Klotho …; assay: MST; fluorescently labeled FGFR1cD2D3
[12] = molecular target: T1, extracellular domain of human β-Klotho …; assay: SPR and/or MST

## GST-FGF21CT S204A (from UniProt Q9NSA1 169-209)
[1]
  IC50: 5990 nM

## GST-FGF21CT D192A (from UniProt Q9NSA1 169-209)
[1]
  IC50: 15900 nM

## GST-FGF21CT Y207A (from UniProt Q9NSA1 169-209)
[1]
  IC50: 6630 nM

## GST-FGF21CT P193A (from UniProt Q9NSA1 169-209)
[1]
  IC50: 7160 nM

## GST-FGF21CT S206A (from UniProt Q9NSA1 169-209)
[1]
  IC50: 5560 nM

B1: recombinant human FGF21 (amino acids 29-209 with L126R, P199G and A208E, N-terminal His6 tag) (ligand)
chain: HPIPDSSPLLQFGGQVRQRYLYTDDAQQTEAHLEIREDGTVGGAADQSPESLLQLKALKPGVIQILGVKTSRFLCQRPDGALYGSLHFDPEACSFRERLLEDGYNVYQSEAHGLPLHLPGNKSPHRDPAPRGPARFLPLPGLPPALPEPPGILAPQPPDVGSSDPLSMVGGSQGRSPSYES
modifications: fluorescently labeled with Monolith Protein Labeling Kit RED-NHS (fl-FGF21) in the MST assays
notes: Expressed in E. coli; also called fl-FGF21; wild-type FGF21; not shown: N-terminal His6 tag from the pET28a vector
[2]
  Kd: 43.5 nM
[3]
  binding result: no binding

B2: R203W/L194F-mutated FGF21 (FGF21WF) (ligand)
chain: HPIPDSSPLLQFGGQVRQRYLYTDDAQQTEAHLEIREDGTVGGAADQSPESLLQLKALKPGVIQILGVKTSRFLCQRPDGALYGSLHFDPEACSFRELLLEDGYNVYQSEAHGLPLHLPGNKSPHRDPAPRGPARFLPLPGLPPALPEPPGILAPQPPDVGSSDPFSMVGPSQGWSPSYAS
notes: also called FGF21 carrying a double L194F/R203W mutations
[4]
  Kd: 3.4 nM
  fold tighter binding than wild-type FGF21: > 10 fold
[5]
  stimulation of FGFR1c tyrosine phosphorylation in L6 cells coexpressing β-Klotho and FGFR1c: ~10 fold

B3: GST-fused FGF21CT (GST-FGF21CT), wild type (other)
chain: GLPPALPEPPGILAPQPPDVGSSDPLSMVGPSQGRSPSYAS
modifications: not fully specified (N-terminus); also: fused to GST tag, letters not given here
notes: also called WT; not shown: glutathione S-transferase tag and linker encoded by the pGEX-4T-1 vector (GE Healthcare)
[6]
  IC50 (read off the curve): ~700 nM
[7]
  IC50 (read off the curve): ~700 nM
[8]
  Kd: 253 nM
[9]
  IC50: 704 nM

B4: FGF21CT synthetic peptide (C-terminal region of FGF21, residues 174-209 with P199G and A208E) (peptide)
peptide: LPEPPGILAPQPPDVGSSDPLSMVGGSQGRSPSYES
notes: also called FGF21CT peptide
[10]
  Kd: 43 nM

B5: FGFR1cD2D3 (ligand binding region of FGFR1c) (receptor, UniProt P11362 142-365, looked up)
chain: DNTKPNRMPVAPYWTSPEKMEKKLHAVPAAKTVKFKCPSSGTPNPTLRWLKNGKEFKPDHRIGGYKVRYATWSIIMDSVVPSDKGNYTCIVENEYGSINHTYQLDVVERSPHRPILQAGLPANKTVALGSNVEFMCKVYSDPQPHIQWLKHIEVNGSKIGPDNLPYVQILKTAGVNTTDKEMEVLHLRNVSFEDAGEYTCLAGNSIGLSHHSAWLTVLEALEER
modifications: fluorescently labeled in the MST assay
notes: domain: D2D3; the c splice form of FGFR1; also called FGFR1cD2D3 extracellular region
[11]
  Kd: 940 nM and ~1000 nM

B6: FGF21 lacking the 10 C-terminal amino acids (ligand)
chain: HPIPDSSPLLQFGGQVRQRYLYTDDAQQTEAHLEIREDGTVGGAADQSPESLLQLKALKPGVIQILGVKTSRFLCQRPDGALYGSLHFDPEACSFRELLLEDGYNVYQSEAHGLPLHLPGNKSPHRDPAPRGPARFLPLPGLPPALPEPPGILAPQPPDVGSSDPLSMVGP
[12]
  binding result: no binding
